For assay [1], the target named is recombinant human CD3ε/δ heterodimer (human) (UniProt P07766). As to the kind of experiment: ELISA, coated CD3ε/δ. (In general: In an ELISA, binding on a coated surface is turned into a signal by an enzyme label.)
Assay [2] addresses recombinant cynomolgus monkey CD3ε/δ heterodimer (cynomolgus monkey) (UniProt Q95LI5). As to the kind of experiment: ELISA, coated CD3ε/δ.

recombinant cynomolgus monkey CD3ε/δ heterodimer (cynomolgus monkey), sequence (Q95LI5 22-117, stated change not applied, chain 1 of 2): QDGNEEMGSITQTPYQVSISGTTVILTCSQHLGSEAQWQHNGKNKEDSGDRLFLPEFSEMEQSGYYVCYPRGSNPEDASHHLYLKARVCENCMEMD
recombinant cynomolgus monkey CD3ε/δ heterodimer (cynomolgus monkey), sequence (Q95LI8 22-105, stated change not applied, chain 2 of 2, further chain): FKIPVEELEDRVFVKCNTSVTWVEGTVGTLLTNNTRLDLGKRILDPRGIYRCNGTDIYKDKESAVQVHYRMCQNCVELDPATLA
recombinant human CD3ε/δ heterodimer (human), sequence (P07766 23-126, stated change not applied, chain 1 of 2): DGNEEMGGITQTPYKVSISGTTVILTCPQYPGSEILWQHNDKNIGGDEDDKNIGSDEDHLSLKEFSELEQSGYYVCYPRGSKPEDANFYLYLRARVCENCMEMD
recombinant human CD3ε/δ heterodimer (human), sequence (P04234 22-105, stated change not applied, chain 2 of 2, further chain): as the sequence (Q95LI8 22-105, stated change not applied, chain 2 of 2, further chain) above, with V5I, K15N, V20I, T32S, N33D, N34I, A64T, N74S, L83V counted along it

B1: A06 (antibody, human IgG1, lambda, L234A L235A, V domains shown)
VH: EVQLVESGGGLVQPGGSLKLSCAASGFTFNTYAMNWVRQASGKGLEWVGRIRSKYNNYATYYADSVKDRFTISRDDSKNTAYLQMNSLKTEDTAVYYCVRHGNFGNSYVSWFAYWGQGTLVTVSS
VL: QAVVTQEPSLTVSPGGTVTLTCRSSTGAVTTSNYANWFQQKPGQAPRGLIYGTNKRAPWTPARFSGSLLGDKAALTLSGAQPEDEAEYYCALWYSNLWVFGGGTKLTVLG
Regarding B1, the figures for the Absorbance (450 nm) in assay [1] and in assay [2] were 0.14 and 0.108, respectively.

B2: E02 (antibody, human IgG1, lambda, L234A L235A, V domains shown)
VH: EVQLVESGGGLVQPGGSLKLSCAASGFTFNTYAMNWVRQASGKGLEWVARIRSKYNNYATYYADSVKDRFTISRDDSKNTAYLQMNSLKTEDTAVYYCVRHGNFGNSYVSWFAYWGQGTLVTVSS
VL: QAVVTQEPSLTVSPGGTVTLTCRSSTGAVTTSNYANWFQQKPGQAPRTLIYGTNKRAPWTPARFSGSLLGDKAALTLSGAQPEDEAEYYCALWYSNLWVFGGGTKLTVLG
B2: the Absorbance (450 nm) in assay [1] is 0.095; in assay [2] it was 0.07.

B3: E10 (antibody, human IgG1, lambda, L234A L235A, V domains shown)
VH: EVQLVESGGGLVQPGGSLKLSCAASGFTFNTYAMNWVRQASGKGLEWVARIRSKYNNYATYYADSVKDRFTISRDDSKNTAYLQMNSLKTEDTAVYYCVRHGNFGNSYVSWFAYWGQGTLVTVSS
VL: QAVVTQEPSLTVSPGGTVTLTCRSSTGAVTTSNYANWVQQKPGQAPRTLIYGTNKRAPWTPARFSGSLLGDKAALTLSGAQPEDEAEYYCALWYSNLWVFGGGTKLTVLG
Regarding B3, the Absorbance (450 nm) turned out to be 0.083 in assay [1] and 0.065 in assay [2].

B4: E09 (antibody, human IgG1, lambda, L234A L235A, V domains shown)
VH: EVQLVESGGGLVQPGGSLKLSCAASGFTFNTYAMNWVRQASGKGLEWVARIRSKYNNYATYYADSVKDRFTISRDDSKNTAYLQMNSLKTEDTAVYYCVRHGNFGNSYVSWFAYWGQGTLVTVSS
VL: QAVVTQEPSLTVSPGGTVTLTCRSSTGAVTTSNYANWVQQKPGQAPRTLIYGTNKRAPWTPARFSGSLLGGKAALTLSGAQPEDEAEYYCALWYSNLWVFGGGTKLTVLG
For B4, the results for the Absorbance (450 nm) in assay [1] and in assay [2] were 0.096 and 0.084, respectively.

B5: D13 (antibody, human IgG1, lambda, L234A L235A, V domains shown)
VH: EVQLVESGGGLVQPGGSLKLSCAASGFTFNTYAMNWVRQASGKGLEWVGRIRSKYNNYATYYADSVKDRFTISRDDSQSTLYLQMNSLKTEDTAVYYCVRHGNFGNSYVSWFAYWGQGTLVTVSS
VL: QAVVTQEPSLTVSPGGTVTLTCRSSTGAVTTSNYANWVQQKPGQAPRGLIYGTNKRAPWTPARFSGSLLGGKAALTLSGAQPEDEAEYYCALWYSNLWVFGGGTKLTVLG
Regarding B5, the Absorbance (450 nm) turned out to be 0.569 in assay [1] and 0.532 in assay [2].

B6: D10 (antibody, human IgG1, lambda, L234A L235A, V domains shown)
VH: EVQLVESGGGLVQPGGSLKLSCAASGFTFNTYAMNWVRQASGKGLEWVGRIRSKYNNYATYYADSVKDRFTISRDDSQSTLYLQMNSLKTEDTAVYYCVRHGNFGNSYVSWFAYWGQGTLVTVSS
VL: QAVVTQEPSLTVSPGGTVTLTCRSSTGAVTTSNYANWVQQKPGQAPRTLIYGTNKRAPWTPARFSGSLLGDKAALTLSGAQPEDEAEYYCALWYSNLWVFGGGTKLTVLG
For the molecule B6, the Absorbance (450 nm) in assay [1] stood at 0.117; in assay [2], 0.113.

B7: D09 (antibody, human IgG1, lambda, L234A L235A, V domains shown)
VH: EVQLVESGGGLVQPGGSLKLSCAASGFTFNTYAMNWVRQASGKGLEWVGRIRSKYNNYATYYADSVKDRFTISRDDSQSTLYLQMNSLKTEDTAVYYCVRHGNFGNSYVSWFAYWGQGTLVTVSS
VL: QAVVTQEPSLTVSPGGTVTLTCRSSTGAVTTSNYANWVQQKPGQAPRTLIYGTNKRAPWTPARFSGSLLGGKAALTLSGAQPEDEAEYYCALWYSNLWVFGGGTKLTVLG
Regarding B7, the Absorbance (450 nm) in assay [1] came out at 0.122; in assay [2] it was 0.098.

B8: E11 (antibody, human IgG1, lambda, L234A L235A, V domains shown)
VH: EVQLVESGGGLVQPGGSLKLSCAASGFTFNTYAMNWVRQASGKGLEWVARIRSKYNNYATYYADSVKDRFTISRDDSKNTAYLQMNSLKTEDTAVYYCVRHGNFGNSYVSWFAYWGQGTLVTVSS
VL: QAVVTQEPSLTVSPGGTVTLTCRSSTGAVTTSNYANWVQQKPGQAPRTLIGGTNKRAPWTPARFSGSLLGGKAALTLSGAQPEDEAEYYCALWYSNLWVFGGGTKLTVLG
For B8, the Absorbance (450 nm) in assay [1] was found to be 0.098; in assay [2] it was 0.075.

B9: E05 (antibody, human IgG1, lambda, L234A L235A, V domains shown)
VH: EVQLVESGGGLVQPGGSLKLSCAASGFTFNTYAMNWVRQASGKGLEWVARIRSKYNNYATYYADSVKDRFTISRDDSKNTAYLQMNSLKTEDTAVYYCVRHGNFGNSYVSWFAYWGQGTLVTVSS
VL: QAVVTQEPSLTVSPGGTVTLTCRSSTGAVTTSNYANWFQQKPGQAPRGLIYGTNKRAPWTPARFSGSLLGGKAALTLSGAQPEDEAEYYCALWYSNLWVFGGGTKLTVLG
As for B9, the Absorbance (450 nm) in assay [1] is 0.085; in assay [2], 0.068.

B10: D14 (antibody, human IgG1, lambda, L234A L235A, V domains shown)
VH: EVQLVESGGGLVQPGGSLKLSCAASGFTFNTYAMNWVRQASGKGLEWVGRIRSKYNNYATYYADSVKDRFTISRDDSQSTLYLQMNSLKTEDTAVYYCVRHGNFGNSYVSWFAYWGQGTLVTVSS
VL: QAVVTQEPSLTVSPGGTVTLTCRSSTGAVTTSNYANWVQQKPGQAPRGLIYGTNKRAPWTPARFSGSLLGDKAALTLSGAQPEDEAEYYCALWYSNLWVFGGGTKLTVLG
Turning to B10, the Absorbance (450 nm) in assay [1] was 0.149; in assay [2], 0.113.

B11: E07 (antibody, human IgG1, lambda, L234A L235A, V domains shown)
VH: EVQLVESGGGLVQPGGSLKLSCAASGFTFNTYAMNWVRQASGKGLEWVARIRSKYNNYATYYADSVKDRFTISRDDSKNTAYLQMNSLKTEDTAVYYCVRHGNFGNSYVSWFAYWGQGTLVTVSS
VL: QAVVTQEPSLTVSPGGTVTLTCRSSTGAVTTSNYANWFQQKPGQAPRGLIGGTNKRAPWTPARFSGSLLGGKAALTLSGAQPEDEAEYYCALWYSNLWVFGGGTKLTVLG
As to B11, the figures for the Absorbance (450 nm) in assay [1] and in assay [2] were 0.109 and 0.115, respectively.

B12: A01 (antibody, human IgG1, lambda, L234A L235A, V domains shown)
VH: EVQLVESGGGLVQPGGSLKLSCAASGFTFNTYAMNWVRQASGKGLEWVGRIRSKYNNYATYYADSVKDRFTISRDDSKNTAYLQMNSLKTEDTAVYYCVRHGNFGNSYVSWFAYWGQGTLVTVSS
VL: QAVVTQEPSLTVSPGGTVTLTCRSSTGAVTTSNYANWFQQKPGQAPRTLIYGTNKRAPWTPARFSGSLLGGKAALTLSGAQPEDEAEYYCALWYSNLWVFGGGTKLTVLG
For B12, the Absorbance (450 nm) in assay [1] amounted to 0.152; in assay [2] it was 0.098.

B13: D12 (antibody, human IgG1, lambda, L234A L235A, V domains shown)
VH: EVQLVESGGGLVQPGGSLKLSCAASGFTFNTYAMNWVRQASGKGLEWVGRIRSKYNNYATYYADSVKDRFTISRDDSQSTLYLQMNSLKTEDTAVYYCVRHGNFGNSYVSWFAYWGQGTLVTVSS
VL: QAVVTQEPSLTVSPGGTVTLTCRSSTGAVTTSNYANWVQQKPGQAPRTLIGGTNKRAPWTPARFSGSLLGDKAALTLSGAQPEDEAEYYCALWYSNLWVFGGGTKLTVLG
As for B13, the Absorbance (450 nm) in assay [1] is 0.095; in assay [2], 0.114.

B14: D11 (antibody, human IgG1, lambda, L234A L235A, V domains shown)
VH: EVQLVESGGGLVQPGGSLKLSCAASGFTFNTYAMNWVRQASGKGLEWVGRIRSKYNNYATYYADSVKDRFTISRDDSQSTLYLQMNSLKTEDTAVYYCVRHGNFGNSYVSWFAYWGQGTLVTVSS
VL: QAVVTQEPSLTVSPGGTVTLTCRSSTGAVTTSNYANWVQQKPGQAPRTLIGGTNKRAPWTPARFSGSLLGGKAALTLSGAQPEDEAEYYCALWYSNLWVFGGGTKLTVLG
Regarding B14, the Absorbance (450 nm) in assay [1] stood at 0.138; in assay [2], 0.134.

B15: E03 (antibody, human IgG1, lambda, L234A L235A, V domains shown)
VH: EVQLVESGGGLVQPGGSLKLSCAASGFTFNTYAMNWVRQASGKGLEWVARIRSKYNNYATYYADSVKDRFTISRDDSKNTAYLQMNSLKTEDTAVYYCVRHGNFGNSYVSWFAYWGQGTLVTVSS
VL: QAVVTQEPSLTVSPGGTVTLTCRSSTGAVTTSNYANWFQQKPGQAPRTLIGGTNKRAPWTPARFSGSLLGGKAALTLSGAQPEDEAEYYCALWYSNLWVFGGGTKLTVLG
On to B15, for which the Absorbance (450 nm) in assay [1] is 0.134; in assay [2], 0.076.

B16: E01 (antibody, human IgG1, lambda, L234A L235A, V domains shown)
VH: EVQLVESGGGLVQPGGSLKLSCAASGFTFNTYAMNWVRQASGKGLEWVARIRSKYNNYATYYADSVKDRFTISRDDSKNTAYLQMNSLKTEDTAVYYCVRHGNFGNSYVSWFAYWGQGTLVTVSS
VL: QAVVTQEPSLTVSPGGTVTLTCRSSTGAVTTSNYANWFQQKPGQAPRTLIYGTNKRAPWTPARFSGSLLGGKAALTLSGAQPEDEAEYYCALWYSNLWVFGGGTKLTVLG
In the case of B16, the results for the Absorbance (450 nm) in assay [1] and in assay [2] were 0.1 and 0.078, respectively.

B17: E08 (antibody, human IgG1, lambda, L234A L235A, V domains shown)
VH: EVQLVESGGGLVQPGGSLKLSCAASGFTFNTYAMNWVRQASGKGLEWVARIRSKYNNYATYYADSVKDRFTISRDDSKNTAYLQMNSLKTEDTAVYYCVRHGNFGNSYVSWFAYWGQGTLVTVSS
VL: QAVVTQEPSLTVSPGGTVTLTCRSSTGAVTTSNYANWFQQKPGQAPRGLIGGTNKRAPWTPARFSGSLLGDKAALTLSGAQPEDEAEYYCALWYSNLWVFGGGTKLTVLG
Take B17: the values for the Absorbance (450 nm) in assay [1] and in assay [2] were 0.074 and 0.099, respectively.

B18: E04 (antibody, human IgG1, lambda, L234A L235A, V domains shown)
VH: EVQLVESGGGLVQPGGSLKLSCAASGFTFNTYAMNWVRQASGKGLEWVARIRSKYNNYATYYADSVKDRFTISRDDSKNTAYLQMNSLKTEDTAVYYCVRHGNFGNSYVSWFAYWGQGTLVTVSS
VL: QAVVTQEPSLTVSPGGTVTLTCRSSTGAVTTSNYANWFQQKPGQAPRTLIGGTNKRAPWTPARFSGSLLGDKAALTLSGAQPEDEAEYYCALWYSNLWVFGGGTKLTVLG
With B18, the Absorbance (450 nm) is 0.087 in assay [1] and 0.067 in assay [2].

B19: E06 (antibody, human IgG1, lambda, L234A L235A, V domains shown)
VH: EVQLVESGGGLVQPGGSLKLSCAASGFTFNTYAMNWVRQASGKGLEWVARIRSKYNNYATYYADSVKDRFTISRDDSKNTAYLQMNSLKTEDTAVYYCVRHGNFGNSYVSWFAYWGQGTLVTVSS
VL: QAVVTQEPSLTVSPGGTVTLTCRSSTGAVTTSNYANWFQQKPGQAPRGLIYGTNKRAPWTPARFSGSLLGDKAALTLSGAQPEDEAEYYCALWYSNLWVFGGGTKLTVLG
As to B19, the Absorbance (450 nm) in assay [1] was found to be 0.112; in assay [2], 0.086.

These data come from patent publication US20200317779A1.
